Sequences and labels used below:
B1: TPR t1 (parent)
chain: GACCAAUCUGCCCUCAGAGCUCGAGAACAUCUUCGGAUGCAGAGGAGGCAGGCUUCGGUGGCGCGAUAGCGCCAACGUCCUCAACCUCCAAUGCAUCCCACCACAUGAUGAUGCCUGAAGAGCCUUGGUUUUUUG

In the data set the parent is B1. The data set is described as follows: polymerase ribozyme fitness, log enrichment relative to wild type (log ratio); higher = more active; in vitro selection for triplet polymerase activity. An outline of the steps: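 After PCR construction and transcription, each subunit's mutant library from a heterodimeric triplet polymerase ribozyme was annealed with a biotinylated primer, the partner subunit and triplets. Incubation was frozen, at −7 °C, and extended constructs were gel-excised, bound to streptavidin beads and amplified by RT-PCR, in one selection round done in triplicate. Fitness is the logarithm of a genotype's enrichment divided by that of the wild type, from inverse-variance-weighted replicate averages of Illumina-sequenced inputs and outputs. The base of the logarithm is 2, and genotypes needed ≥10 input reads and ≥1 read per output.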
For the variant C80U G135U, the “polymerase ribozyme fitness (log ratio)” value is -0.986. The same measure for G10U U112G: 0.352; for A6U C8A G71C C115A U116A A121G U131A: -2.72. Turning to A43U G117U, the “polymerase ribozyme fitness (log ratio)” value is -3.35. The same measure for C40U G42A C114U: -1.92.

Consider U33G A50G A121C, for which the “polymerase ribozyme fitness (log ratio)” value was -4.43.

Take C73G G122U C123G: the “polymerase ribozyme fitness (log ratio)” value turned out to be 0.776.

Take C53U C73G: the “polymerase ribozyme fitness (log ratio)” value is -2.05. On to G61C C89A U132C, for which the “polymerase ribozyme fitness (log ratio)” value was -3.89. Next, C4A U7A G61A: -0.369. The same measure for C34G C53U G60A U87G G110C: -7.9.

For A6U G120C, the “polymerase ribozyme fitness (log ratio)” value was determined as 1.12. The same measure for G47C C102U G110U U133A: -5.04; for C49A G117A: -1.89.

G51A C56U A84G A95G U96A: the “polymerase ribozyme fitness (log ratio)” value is -5.06. For C40U A43U A90G G113U, the “polymerase ribozyme fitness (log ratio)” value is -3.26. Next, C12U C64U C98U: -0.396.

Take C40A G57C U81G C82G C97A A111U: the “polymerase ribozyme fitness (log ratio)” value was -6.79. Turning to A18C C40U G48A C56G A84C C114U, the “polymerase ribozyme fitness (log ratio)” value was -5.13.

Consider G60U A83U A108C C114G G117C, for which the “polymerase ribozyme fitness (log ratio)” value is -5.39. On to A43C U55C C64U A84G G110U U125A, for which the “polymerase ribozyme fitness (log ratio)” value is -6.14. For U9A G17A G113A, the “polymerase ribozyme fitness (log ratio)” value is -3.11. G69A G122U: the “polymerase ribozyme fitness (log ratio)” value is -2.62. Next, A5U C13G C49A G63U U81G A121C: -3.63; G71U A91U U96C: -3.7. The same measure for G19A A29C U109A G120C: -5.43. The same measure for A6U C22U: -3.04. Take C72U C79U U96A G113U: the “polymerase ribozyme fitness (log ratio)” value is -4.45. Next, C11U C13U A50C A103C U125A: -5.37; A41U U109C C114U G120U: -4.6. As for G51U G71A A90G C98G C114A C123U, the “polymerase ribozyme fitness (log ratio)” value is -6.6. Turning to C11U U30A G61U, the “polymerase ribozyme fitness (log ratio)” value was -4.45. Next, U7G G60U: -0.565.

As for A43U G61C, the “polymerase ribozyme fitness (log ratio)” value is -4.42. With U9C U92A C114A, the “polymerase ribozyme fitness (log ratio)” value is -1.69. Next, C15A G47U G127C: -5.43; C123A C124U: 2.15; U33A C88U: -3.66.

Consider A37U G61U G120C, for which the “polymerase ribozyme fitness (log ratio)” value was determined as 0.718. Next, C56A G113A: -0.455; C101U U112A: 0.284; U7C A16U C79U C85A: -4.35.

Regarding A29G G69A A75U C104U U112G, the “polymerase ribozyme fitness (log ratio)” value was -4.35. For the variant A50U G51C C73U, the “polymerase ribozyme fitness (log ratio)” value is -3.52. For C34G A37U U55G C72G U92C C124A, the “polymerase ribozyme fitness (log ratio)” value was -5.91. As for U33C G77C, the “polymerase ribozyme fitness (log ratio)” value was -5.05. Turning to C13A U112G, the “polymerase ribozyme fitness (log ratio)” value is -1.5. Regarding C3G C102A, the “polymerase ribozyme fitness (log ratio)” value is -4.71. On to C4G A18U, for which the “polymerase ribozyme fitness (log ratio)” value was -4.14. Next, C15U U132A: -0.984. Next, C34A G36U: -4.2; C53U G71U G127A: -1.14; A27U G44A U129A: -6.51. Regarding C13A C85G C123U, the “polymerase ribozyme fitness (log ratio)” value was -0.463. Next, U54C C56A C64A C85G G117A: -7.73; G63A G93A G120U: -1.07; C49A A74G: -0.173. The same measure for C62U A83G: -1.18.

As to U9A U33A G36U C89G C124A, the “polymerase ribozyme fitness (log ratio)” value is -5.28. On to C12A G42U C88G C114U, for which the “polymerase ribozyme fitness (log ratio)” value was -4.43. Next, A6G A121C: 2.2. C73U U116C: the “polymerase ribozyme fitness (log ratio)” value was -0.498. The same measure for C34A G48A U59C C101A: -5.32. The same measure for C11A A37C U54C: -2.16. A16U G42U C53G G71A G120A: the “polymerase ribozyme fitness (log ratio)” value is -2.89. As for G47U C89U, the “polymerase ribozyme fitness (log ratio)” value is -3.28.

Consider A6C G52U G63A, for which the “polymerase ribozyme fitness (log ratio)” value was -0.684. Next, A84U C88U G93A G128A: -2; A18G G48A G63A G77A U81C A121U U126G: -5.32. Turning to C12U C76U, the “polymerase ribozyme fitness (log ratio)” value is -0.504. Next, C64U A95G: -1.52; C4G G42A: -3.06. In the case of C56A G71U G122A, the “polymerase ribozyme fitness (log ratio)” value was -2.05.

Turning to C4U G61C, the “polymerase ribozyme fitness (log ratio)” value is -2.8. With C40A G63U, the “polymerase ribozyme fitness (log ratio)” value was -3.37.

Consider C8A A43C C70G, for which the “polymerase ribozyme fitness (log ratio)” value is -6.43.

Regarding C40G G57U, the “polymerase ribozyme fitness (log ratio)” value was -1.36. Take G10A C72U G113A: the “polymerase ribozyme fitness (log ratio)” value was -1.32. The same measure for A6G C12A G117A: -2.34; for C12U A83C: 0.0344. As to G60C G110U U125G, the “polymerase ribozyme fitness (log ratio)” value is -2.79. The same measure for G69U U129G: -1.02. The same measure for U14A C72U C89A: -3.16; for A5U C70G A119G: -0.737; for C53G G107A: -5.6.

Take C8G G47U G57A C73A C85G U106A U133A: the “polymerase ribozyme fitness (log ratio)” value was -4.51. Next, C22G C82A C94G A111U: -4.76. Regarding C8G U14G G36U C62U C80U G120A, the “polymerase ribozyme fitness (log ratio)” value amounted to 0.635. The same measure for C34A G113C G117C: -6.74; for A41U G42A G52A: -3.18; for A105C C114A: -3.98.

Regarding G61A C70U G120U C123G, the “polymerase ribozyme fitness (log ratio)” value was -0.0638.

For the variant C34A C72U, the “polymerase ribozyme fitness (log ratio)” value was -2.58.

On to C89A C94A C104U G110A, for which the “polymerase ribozyme fitness (log ratio)” value is -4.47.

With G10C C11G A103U, the “polymerase ribozyme fitness (log ratio)” value was -3.76. For C8U A111C, the “polymerase ribozyme fitness (log ratio)” value is 0.776.

For the variant G71A C115A C123U, the “polymerase ribozyme fitness (log ratio)” value was -2.76. With U92C G120U, the “polymerase ribozyme fitness (log ratio)” value stood at 0.184.

C8U U9G G57A: the “polymerase ribozyme fitness (log ratio)” value is -0.23.

With A2G C12U, the “polymerase ribozyme fitness (log ratio)” value is -0.378. The same measure for C4U G69A: -2.91; for U32C G48A C102A C123U: -2.5. As for U7C U9G A26G, the “polymerase ribozyme fitness (log ratio)” value is -1.4. Consider C82A A103G, for which the “polymerase ribozyme fitness (log ratio)” value is -4.08. Next, C89G U109G: -5.16; C89G U109A: -5.37. Turning to C53A G60A C94A G120A, the “polymerase ribozyme fitness (log ratio)” value was 0.047. In the case of C56U G65C, the “polymerase ribozyme fitness (log ratio)” value was -5.42. Next, G110U G135C: -1.54.

Consider C62U C86A, for which the “polymerase ribozyme fitness (log ratio)” value was -0.731. With A2U C8U G47C G93U, the “polymerase ribozyme fitness (log ratio)” value is -4.25. The same measure for G17U G63U U133A: -3.87; for C4A A41U G58C G117A: -7.2. The same measure for G44U C73G C102U C124G: -1.03.

As to G61U A105C, the “polymerase ribozyme fitness (log ratio)” value is -1.99. Next, C40G C53U: -0.175. As to G17A U116C G120U, the “polymerase ribozyme fitness (log ratio)” value was -5.7. Regarding G58A U81C C85G, the “polymerase ribozyme fitness (log ratio)” value was -2.26. The same measure for U9G G48A G93C: -1.01; for A43U G110C: -5.24; for U21G C62A C124A U131A: -1.77.

As for C88G G110C, the “polymerase ribozyme fitness (log ratio)” value was -5.26. Next, A6G C8A U55A: 0.109. The same measure for A6G C8A U9G: 0.0967; for U54A C73U A121U U130A: 2.07. The same measure for C28U C73A: -2.23; for C40A U59A G60A: -0.777; for A27G A83G C86U: -2.33. For G35U G77C C123G, the “polymerase ribozyme fitness (log ratio)” value is -5.04. The same measure for G10A C20A U87A C124U: -0.469.

Turning to A5C G47U G48C G71A C102A, the “polymerase ribozyme fitness (log ratio)” value was -6.35. The same measure for A24U A27U C28U G36U A111U: -5.92; for C12G U96G G117U: -2.18; for C12U G39U G63U G77C: -3.85. The same measure for C40A C70A: -2.89; for C40G C53G G61C C104A G113A: -4.09. The same measure for A2C A83U: -1.1; for G23U G120A: -6.57. Consider G45A G63C C82U, for which the “polymerase ribozyme fitness (log ratio)” value is -0.994.

With C73U U78C U96A, the “polymerase ribozyme fitness (log ratio)” value is -1.03. Turning to G61U C104U, the “polymerase ribozyme fitness (log ratio)” value was 0.264.

Consider U87A G120A, for which the “polymerase ribozyme fitness (log ratio)” value turned out to be 0.663. U38G U92A U109G C114A G122U: the “polymerase ribozyme fitness (log ratio)” value was -6.12. Next, C8U C56G C80A: -1.69; C80U C114G: -3.48. U9A C11A G42U G61U: the “polymerase ribozyme fitness (log ratio)” value was -1.6.

Regarding C3U C34A C53A C79U C88U C97U, the “polymerase ribozyme fitness (log ratio)” value is -2.66. For the variant C62A G110A, the “polymerase ribozyme fitness (log ratio)” value is -2.12. Next, C62U C80U C97U: -0.921; G36A G69A: -3.69; C53G C123U: 0.236. The same measure for C88U G120C: 0.853; for G44A C72G C79A A83U U112G G122A U132C: -6.81. Turning to U32A C88G U125A, the “polymerase ribozyme fitness (log ratio)” value is -5.98. In the case of C79A C124A, the “polymerase ribozyme fitness (log ratio)” value came to 0.574.

As for A29U A84C U87C U112C, the “polymerase ribozyme fitness (log ratio)” value was -0.813. Regarding C8A C12A G61C G69U G120A U129G, the “polymerase ribozyme fitness (log ratio)” value was -1.45.

With C4G A111C, the “polymerase ribozyme fitness (log ratio)” value was -0.384. As for G45U G61U G117U C123A, the “polymerase ribozyme fitness (log ratio)” value is -2.94. Next, G61U C97A C123A: -4.17; G71A U96A U116A: -3.94; C40A G63A G128U: -4.66. Next, C11G C56G U106G: -0.581. Turning to C12U C72U C104A U125G, the “polymerase ribozyme fitness (log ratio)” value was -1.99. The same measure for G17A G63U A90C U112A: -5.03; for G36U A46U G52U G120A: -2.3. Next, A91C C123A U133G: -1.07.
